Here are results for four molecules from publication PMC9719028 (Life Science Alliance, 2022).

One may read the Km as the substrate concentration at which the rate is half of its maximum.

Data set [1] deals with T1, DIRC2-AA (Homo sapiens, UniProt Q96SL1, L14A/L15A).
T1 construct: gene SLC49A4; untagged DIRC2-AA in pCI-neo, N-terminal dileucine motif (E10RQPL14L15) replaced by dialanine, redirected to plasma membrane of transiently transfected COS-7 cells; FLAG-tagged form mostly present as cleaved product
T1 sequence (Q96SL1 1-478 L14A/L15A): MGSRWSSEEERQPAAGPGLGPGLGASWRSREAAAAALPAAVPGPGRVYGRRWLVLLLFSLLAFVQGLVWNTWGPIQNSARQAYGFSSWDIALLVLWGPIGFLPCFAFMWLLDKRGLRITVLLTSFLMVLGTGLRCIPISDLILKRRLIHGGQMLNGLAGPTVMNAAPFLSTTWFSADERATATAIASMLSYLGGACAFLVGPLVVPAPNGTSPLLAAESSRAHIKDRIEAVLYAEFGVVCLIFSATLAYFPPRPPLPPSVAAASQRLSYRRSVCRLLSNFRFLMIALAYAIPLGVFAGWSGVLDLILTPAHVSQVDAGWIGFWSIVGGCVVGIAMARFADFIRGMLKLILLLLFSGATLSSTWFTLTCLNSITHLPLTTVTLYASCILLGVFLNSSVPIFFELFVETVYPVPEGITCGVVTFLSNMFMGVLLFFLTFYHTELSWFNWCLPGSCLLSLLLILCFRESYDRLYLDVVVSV
In words: inhibition of specific [3H]pyridoxine uptake in transfected COS-7 cells. The settings on record: 10 nM [3H]pyridoxine, 1 mM test compound, pH 5.0, 37 °C, 1 min. The class given is cell-based.

Substrate in data set [2]: Cc1ncc(CO)c(CO)c1O
In words: cells, lysate or membranes. The following applies: pH 5.0, 37 °C, 1 min, labelled compound.

For `Cc1ncc(CO)c(C)c1O` [4-deoxypyridoxine], in data set [1], the “% inhibition at 1 mM” value is “only 4-deoxypyridoxine other than pyridoxine significantly inhibited the DIRC2-AA–specific uptake”.

B1: DIRC2-AA (Homo sapiens; L14A/L15A) (protein)
chain: MGSRWSSEEERQPAAGPGLGPGLGASWRSREAAAAALPAAVPGPGRVYGRRWLVLLLFSLLAFVQGLVWNTWGPIQNSARQAYGFSSWDIALLVLWGPIGFLPCFAFMWLLDKRGLRITVLLTSFLMVLGTGLRCIPISDLILKRRLIHGGQMLNGLAGPTVMNAAPFLSTTWFSADERATATAIASMLSYLGGACAFLVGPLVVPAPNGTSPLLAAESSRAHIKDRIEAVLYAEFGVVCLIFSATLAYFPPRPPLPPSVAAASQRLSYRRSVCRLLSNFRFLMIALAYAIPLGVFAGWSGVLDLILTPAHVSQVDAGWIGFWSIVGGCVVGIAMARFADFIRGMLKLILLLLFSGATLSSTWFTLTCLNSITHLPLTTVTLYASCILLGVFLNSSVPIFFELFVETVYPVPEGITCGVVTFLSNMFMGVLLFFLTFYHTELSWFNWCLPGSCLLSLLLILCFRESYDRLYLDVVVSV
B1: the Michaelis-Menten constant (Km) in data set [2] (Hanks' solution with MES (NaCl present), H+-coupled uptake) stood at 522 ± 63 µM.

B2: EGFP-DIRC2-AA (Homo sapiens; L14A/L15A) (protein)
chain: MGSRWSSEEERQPAAGPGLGPGLGASWRSREAAAAALPAAVPGPGRVYGRRWLVLLLFSLLAFVQGLVWNTWGPIQNSARQAYGFSSWDIALLVLWGPIGFLPCFAFMWLLDKRGLRITVLLTSFLMVLGTGLRCIPISDLILKRRLIHGGQMLNGLAGPTVMNAAPFLSTTWFSADERATATAIASMLSYLGGACAFLVGPLVVPAPNGTSPLLAAESSRAHIKDRIEAVLYAEFGVVCLIFSATLAYFPPRPPLPPSVAAASQRLSYRRSVCRLLSNFRFLMIALAYAIPLGVFAGWSGVLDLILTPAHVSQVDAGWIGFWSIVGGCVVGIAMARFADFIRGMLKLILLLLFSGATLSSTWFTLTCLNSITHLPLTTVTLYASCILLGVFLNSSVPIFFELFVETVYPVPEGITCGVVTFLSNMFMGVLLFFLTFYHTELSWFNWCLPGSCLLSLLLILCFRESYDRLYLDVVVSV
Turning to B2, the Michaelis constant (Km) in data set [2] (Hanks' solution with MES (NaCl present), H+-coupled uptake, caption names it FLAG-DIRC2-AA once, text says EGFP-DIRC2-AA) was 476 ± 19 µM.

B3: EGFP-THTR2 (Homo sapiens) (protein)
chain: MDCYRTSLSSSWIYPTVILCLFGFFSMMRPSEPFLIPYLSGPDKNLTSAEITNEIFPVWTYSYLVLLLPVFVLTDYVRYKPVIILQGISFIITWLLLLFGQGVKTMQVVEFFYGMVTAAEVAYYAYIYSVVSPEHYQRVSGYCRSVTLAAYTAGSVLAQLLVSLANMSYFYLNVISLASVSVAFLFSLFLPMPKKSMFFHAKPSREIKKSSSVNPVLEETHEGEAPGCEEQKPTSEILSTSGKLNKGQLNSLKPSNVTVDVFVQWFQDLKECYSSKRLFYWSLWWAFATAGFNQVLNYVQILWDYKAPSQDSSIYNGAVEAIATFGGAVAAFAVGYVKVNWDLLGELALVVFSVVNAGSLFLMHYTANIWACYAGYLIFKSSYMLLITIAVFQIAVNLNVERYALVFGINTFIALVIQTIMTVIVVDQRGLNLPVSIQFLVYGSYFAVIAGIFLMRSMYITYSTKSQKDVQSPAPSENPDVSHPEEESNIIMSTKL
For B3, the Michaelis constant (Km) in data set [2] (Hanks' solution with MES) worked out at 20 ± 1 µM.
